Assay results: US7982017B2, “Antibodies recognizing a carbohydrate containing epitope on CD-43 and CEA expressed on cancer cells and methods using same” (BioAlliance C.V., priority 2007, dated 2011)

Assays:
COLO 205 cells [1] = assay: Six-hour apoptosis assay (Annexin V / PI, FACS) in COLO 205; assay type: cell-based; details: 6 h
Description: (§1) 1.5×10^5 of COLO 205 cells were seeded into the wells of 96-well plates. Aliquots of purified m5F1, c5F1-v0, c5F1-v15, c5F1-v16 and control antibodies at the concentration ranging from 2 to 32 ug/ml were prepared freshly in culture medium and added to each well. The sample treated with m9E10 and h16C11A were used as isotype control. The treated cells were kept at 37° incubator for 6 h before FACS analysis for apoptosis. For cellular apoptosis assay, Annexin V staining was measured using Annexin-V-FITC Apoptosis Detection Kit (Strong Biotech, Cat. No. AVK250) following the manufacturer's instruction. In brief, the treated cells were harvested and resuspended in Annexin V binding buffer containing Annexin V-FITC at room temperature. After 15 min incubation in the dark, the cells were washed twice with 200 μl of Annexin V binding buffer. Before FACS analysis, 0.25 μg/ml of propidium iodide (PI) was added. All flow cytometric analyses were performed on a BD-LSR flow cytometer (Becton Dickinson) using the Cell Quest software. The Annexin VI positive and/or PI positive cells are considered apoptotic cells.
1.5×10^5 of Colo205 cells were seeded into the wells of 96-well plates. Aliquots of purified m5F1, c5F1, c5F1-v17, c5F1-v24, c5F1-v25 and control antibodies at the concentration ranging from 8 to 32 ug/ml were prepared freshly in culture medium and added to each well. The treated cells were kept at 37° incubator for 6 h before FACS analysis for apoptosis. For cellular apoptosis assay, Annexin V staining was measured using Annexin-V-FITC Apoptosis Detection Kit (Strong Biotech, Cat. No. AV 250) following the manufacturer's instruction. In brief, the treated cells were harvested and resuspended in Annexin V binding buffer containing Annexin V-FITC at room temperature. After 15 min incubation in the dark, the cells were washed twice with 200 ul of Annexin V binding buffer. Before FACS analysis, 0.25 ug/ml of propidium iodide (PI) was added. All flow cytometric analyses were performed on a BD-LSR flow cytometer (Becton Dickinson) using the Cell Quest software. The Annexin VI positive and/or PI positive cells are considered apoptotic cells.

COLO 205 cells [2] = assay: Binding assay: flow cytometric binding of 5F1 antibodies to COLO 205 cells; details: for binding to Colo 205 (words): FIG. 3, 0.125 to 4 ug/ml
Description: Purified m5F1, c5F1-v0, c5F1-v15 and c5F1-v16 antibodies at the concentration ranging from 0.125 to 4 ug/ml were added to 1.5×10^5 COLO 205 cells and incubated for 30 min at 4° C., washed for twice with PBS containing 2% FBS and 0.05% NaN3, followed by incubation with 1 μg/ml of corresponding secondary antibodies (R-PE-conjugated goat F(ab′)2 anti-mouse IgG(H+L), Southern Biotech, Cat. No. 1032-09; or R-PE-conjugated goat anti-human IgG, Southern Biotech, Cat. No. 2040-09) at 4° C. for 30 min. At the end of staining, samples were washed twice with PBS containing 2% FBS and 0.05% NaN3 and analyzed by flow cytometer. All flow cytometric analyses were performed on a BD-LSR flow cytometer (Becton Dickinson) using the Cell Quest software.
Purified m5F1, c5F1-v0, c5F1-yl7, c5F1-v24 and c5F1-v25 antibodies at 1 ug/ml were added to 2×10^5 Colo 205 cells and incubated for 30 min at 4° C., washed for twice with PBS containing 1% FBS, followed by incubation with 1 ug/ml of corresponding secondary antibodies (R-PE-conjugated goat F(ab′)2 anti-mouse IgG(H+L), Southern Biotech, Cat. No. 1032-09; or R-PE-conjugated goat anti-human IgG, Southern Biotech, Cat. No. 2040-09) at 4° C. for 30 min. At the end of staining, samples were washed twice with PBS containing 1% FBS and 0.05% NaN3 and analyzed by flow cytometer. All flow cytometric analyses were performed on a BD-LSR flow cytometer (Becton Dickinson) using the Cell Quest software.

SU.86.86 cells [3] = assay: Binding to SU.86.86 pancreatic cancer cells by flow cytometry
Description: Purified m5F1 and control antibodies at 1 ug/ml were added to 2×10^5 SU.86.86 cells and incubated for 1 hour at 4° C., washed twice with PBS containing 1% FBS, followed by incubation with 1 ug/ml of corresponding secondary antibodies (R-PE-conjugated goat F(ab′)2 anti-mouse IgG(H+L), Southern Biotech, Cat. No. 1032-09) at 4° C. for 1 hour. At the end of staining, samples were washed twice with PBS containing 1% FBS and analyzed by flow cytometer. All flow cytometric analyses were performed on a BD-LSR flow cytometer (Becton Dickinson) using the Cell Quest software.
(§2) Binding experiments were carried out for antibodies c5F1.v15, c5F1.v16, and c5F1.v24. […] Apoptosis assay was carried out for antibody c5F1.v15.

SU.86.86 cells [4] = assay: Apoptosis induction of SU.86.86 cells (6 h, Annexin V / PI); assay type: cell-based
Description: as §1, with “2×10^5” for “1.5×10^5”, “SU86.86” for “COLO 205”, “12-well” for “96-well”, “m5F1” for “m5F1, c5F1-v0, c5F1-v15, c5F1-v16 and control antibodies”, “Control antibody at 32 ug/ml was included for background signal measurement.” for “The sample treated with m9E10 and h16C11A were used as isotype control.”
as §2

B1: m5F1: murine antibody 5F1, isotype murine IgG3; heavy chain V region SEQ ID NO:1, light chain V region SEQ ID NO:2 (antibody, V domains shown)
VH: MEWSWIFLFLLSGTAGVHSEVQLQQSGPELVKPGASVRMSCTASGYTFTSYVMHWIKQKPGQGLDWIGYINPYNGGTQYNEKFKGKATLTSDKSSSTAYMELSSLTSEDSAVYYCARRTFPYYFDYWGQGTTLTVSS
VL: MKLPVRLLVLMFWIPASSSDVLMTQTPLSLPVSLGDQASISCRSSQSILHSNGNTYLEWYLQKPGQSPKLLIYKVSNRFSGVPDRFSGSGSGTDFTLKISRVEAEDLGVYYCFQGSHAPLTFGAGTKLELK
modifications: Murine
% of Annexin V and/or PI positive cells (COLO 205 cells [1]; Table 7, 2 ug/ml): 35% | % of Annexin V and/or PI positive cells (COLO 205 cells [1]; Table 7, 4 ug/ml): 53% | % of Annexin V and/or PI positive cells (COLO 205 cells [1]; Table 7, 8 ug/ml): 76% | % of Annexin V and/or PI positive cells (COLO 205 cells [1]; Table 7, 16 ug/ml): 92% | % of Annexin V and/or PI positive cells (COLO 205 cells [1]; Table 7, 32 ug/ml): 93% | % of Annexin V and/or PI positive cells (COLO 205 cells [1]; Table 11 Exp. 1, 8 ug/ml): 88% | % of Annexin V and/or PI positive cells (COLO 205 cells [1]; Table 11 Exp. 1, 16 ug/ml): 92% | % of Annexin V and/or PI positive cells (COLO 205 cells [1]; Table 11 Exp. 1, 32 ug/ml): 92% | % of Annexin V and/or PI positive cells (COLO 205 cells [1]; Table 11 Exp. 2, 8 ug/ml): 89% | % of Annexin V and/or PI positive cells (COLO 205 cells [1]; Table 11 Exp. 2, 16 ug/ml): 94% | % of Annexin V and/or PI positive cells (COLO 205 cells [1]; Table 11 Exp. 2, 32 ug/ml): 96% | binding to Colo 205 (words) (COLO 205 cells [2]): significant binding | Median Fluorescence Intensity (MFI) (COLO 205 cells [2]; Table 10, antibodies at 1 ug/ml): 800 | binding to SU.86.86 cells (SU.86.86 cells [3]): could bind | MFI (SU.86.86 cells [3]; Table 14, antibody at 1 ug/ml): 131 | % of Annexin V and/or PI positive cells (SU.86.86 cells [4]; 2 ug/ml): 60% | % of Annexin V and/or PI positive cells (SU.86.86 cells [4]; 4 ug/ml): 72% | % of Annexin V and/or PI positive cells (SU.86.86 cells [4]; 8 ug/ml): 78% | % of Annexin V and/or PI positive cells (SU.86.86 cells [4]; 16 ug/ml): 89% | % of Annexin V and/or PI positive cells (SU.86.86 cells [4]; 32 ug/ml): 91% | apoptosis induction in SU.86.86 cells (SU.86.86 cells [4]; 2 to 32 ug/ml): induced apoptosis

B2: c5F1-v16: chimeric 5F1, heavy chain v16 (hinge C220S), light chain v0[L] (antibody)
heavy: EVQLQQSGPELVKPGASVRMSCTASGYTFTSYVMHWIKQKPGQGLDWIGYINPYNGGTQYNEKFKGKATLTSDKSSSTAYMELSSLTSEDSAVYYCARRTFPYYFDYWGQGTTLTVSSASTKGPSVFPLAPSSKSTSGGTAALGCLVKDYFPEPVTVSWNSGALTSGVHTFPAVLQSSGLYSLSSVVTVPSSSLGTQTYICNVNHKPSNTKVDKKVEPKSSDKTHTCPPCPAPELLGGPSVFLFPPKPKDTLMISRTPEVTCVVVDVSHEDPEVKFNWYVDGVEVHNAKTKPREEQYNSTYRVVSVLTVLHQDWLNGKEYKCKVSNKALPAPIEKTISKAKGQPREPQVYTLPPRDELTKNQVSLTCLVKGFYPSDIAVEWESNGQPENNYKTTPPVLDSDGSFFLYSKLTVDKSRWQQGNVFSCSVMHEALHNHYTQKSLSLSPGK
light: DVLMTQTPLSLPVSLGDQASISCRSSQSILHSNGNTYLEWYLQKPGQSPKLLIYKVSNRFSGVPDRFSGSGSGTDFTLKISRVEAEDLGVYYCFQGSHAPLTFGAGTKLELKRTVAAPSVFIFPPSDEQLKSGTASVVCLLNNFYPREAKVQWKVDNALQSGNSQESVTEQDSKDSTYSLSSTLTLSKADYEKHKVYACEVTHQGLSSPVTKSFNRGEC
apoptosis-inducing activity in COLO 205 (COLO 205 cells [1]; 2 to 32 ug/ml, compared with m5F1): almost as efficient as m5F1 | % of Annexin V and/or PI positive cells (COLO 205 cells [1]; Table 7, 4 ug/ml): 58% | % of Annexin V and/or PI positive cells (COLO 205 cells [1]; Table 7, 8 ug/ml): 78% | % of Annexin V and/or PI positive cells (COLO 205 cells [1]; Table 7, 16 ug/ml): 92% | % of Annexin V and/or PI positive cells (COLO 205 cells [1]; Table 7, 32 ug/ml): 96% | binding to Colo 205 (words) (COLO 205 cells [2]): relatively less compared to c5F1 | binding to Colo 205 (words) (COLO 205 cells [2]; listed as c5F1v16): significant binding | binding to SU.86.86 cells (SU.86.86 cells [3]): significant binding
